Experimental data taken from patent publication US11547721B2, “Magnetic nanoparticles for use in the treatment of tumors” (CONSIGLIO NAZIONALE DELLE RICERCHE, priority 2018, dated 2023).

Tests used:
IGROV-1 cells [1] = assay: Cytotoxicity, cell viability assay with Presto blue; assay type: cell-based
Procedure: Cytotoxicity studies have been conducted to confirm the activity of the platinum-based chemotherapeutic agent attached to the nanocubes. IGROV-1 cells were incubated with nanocubes functionalized with oxaliplatin and antibody (in FIG. 3a indicated as NCs_OHP_C4) for 24, 48 and 72 hours at Fe concentration equal to 0.05 g/L, 0.1 g/L and 0.15 g/L, corresponding to 1.3, 2.6 and 3.9 μM of oxaliplatin chemotherapeutic agent. Cell viability has been verified in an assay with Presto blue. […] The toxicity of the chemotherapeutic agent alone was administered, administered to the cells for 24 hours, 48 hours and 72 hours at the concentration of oxaliplatin corresponding to the same quantity loaded on the nanocubes. […] It is also important to note that in these experiments the control consisted of nanocubes with polymeric coating, functionalised with PEG-NTA-C4, but lacking oxaliplatin, prepared as described above.
Cytotoxicity data were also collected for longer-time treatments, to verify the toxicity of oxaliplatin loaded on the nanocubes according to the invention over extended periods of time. In fact, since the action of platinum-based chemotherapy drugs involves their interleaving within the cell's DNA, the adverse effects of treatment with these drugs should be more evident at longer times after exposure to the drug. Then, after exposure of the IGROV-1 cells to the nanocubes functionalized with antibody and drug for 24, 48 and 72 hours of treatment respectively, the supernatant was removed and the cells were kept in a fresh culture medium for a further 24, 48 or 72 hours. The viability of these cells was verified by analysis with blue Presto immediately after direct exposure to the nanocubes and at 24, 48 and 72 hours after incubation.

IGROV-1 cells [2] = assay: Hyperthermia combined with release of chemotherapeutic agent, viability with Presto blue; assay type: cell-based; conditions: for cell viability at 24 hours / cell viability at 48 hours / cell viability at 120 hours: with hyperthermia (2 x 30 min, 42° C., 27 kA m^−1, 182 kHz), 5.5 g Fe/L
Procedure: Hyperthermia experiments were conducted on cells treated with the invention's nanocubes to monitor the efficiency of nanoparticles in killing tumor cells with heat and improving the toxicity mediated by oxaliplatin. In practice, 3×10^6 IGROV-1 cells were incubated with 5.5 g of Fe/L of invention nanocubes functionalized with oxaliplatin and NCs-PEG-Pt-C4 antibody fragment, and exposed to a magnetic field of 27 kA m^−1 at frequency of 182 kHz, so as not to exceed the biological limit (Hf=5×10^9 A m^−1 s^−1). Two consecutive 30-minutes hyperthermia treatments were then performed, each with a maximum temperature reached in these conditions of 42° C. Also included in this study were: untreated cells, cells incubated with nanocubes functionalized only with antibody without oxaliplatin (exposed and not exposed to hyperthermia), and cells incubated with nanocubes functionalized with antibody and oxaliplatin not exposed to hyperthermia. A control experiment was also performed by incubating the cells with free oxaliplatin at the same amount of platinum loaded on the nanocubes (28 μg of platinum, corresponding to 140 μM of oxaliplatin).
After the hyperthermal treatment, the cells were washed to remove excess nanocubes present and re-seeded in a fresh culture medium (5×10^4 cells per well for each cell sample), so as to monitor their vitality at 24, 48 and 120 hours after treatment, with an assay with blue Presto. […] After 120 hours, the combined and concomitant action of hyperthermia and release of the chemotherapeutic agent made the cells unable to recover their growth (vitality of about 40% at 120 hours).

[3] = Release of platinum from nanocubes in citrate buffer at different pH; assay type: physicochemical; conditions: pH 5.5, 5 and 4.5
Excerpt: Firstly, in a test tube, the release of platinum from the citrated buffer nanocubes at different pH was verified, according to the expected acidity values for endosomes, late endosomes and lysosomes (pH=5.5, 5 and 4.5 respectively). It has thus been verified that the release of platinum is pH dependent and that the maximum amount of platinum released is obtained at the lowest pH, i.e. at pH 4.5, which corresponds to the pH of the lysosomal environment.

[4] = test system: KB cells (high natural expression of folate receptors); assay: Flow cytometry (FACS) binding of nanocubes to cells; assay type: cell-based; conditions: 0.025 mg/mL antibody fragment, PBS, 4° C., 1 hour
Procedure: (§1) The A431-tFR and A431-MOCK cells provided by the IRCSS Foundation, National Cancer Institute, Milan, Italy, were grown in the modified Dulbecco culture medium (DMEM, Merck, Kenilworth, USA). IGROV-1 cells (ATCC, UK) were cultured in RPMI-1640 (RPMI-1640, Merck, Kenilworth, USA). The KB cells (ATCC, UK) were cultured in RPMI-1640 without folic acid (RPMI-1640 without folic acid, Merck, Kenilworth, USA). All culture media were added with 10% inactivated fetal bovine serum (FBS), 1% penicillin-streptomycin and 1% glutamine at 37° C., 95% humidity with 5% CO2. The cells were divided every 3-4 days before reaching confluence. In these experiments, the functionalized nanocubes of the invention comprising the antibody fragment in a quantity of 0.025 mg/mL were incubated in PBS at 4° C. for 1 hour with 5×10^5 cells of the cell lines indicated above. As a negative control, the non-functionalised nanocubes with polymer coating were used. Then, after three washes, the cells were incubated for 1 hour at 4° C. with the primary antibody that binds to the myc sequence of the C4 antibody fragment. Following a wash in PBS a secondary antibody conjugated to the fluorescent probe Alexa-488 was added to the cells, capable of binding the Fc portion of the primary antibody.

[5] = test system: A431-MOCK cells (do not express the folate receptor); assay: as above; assay type: cell-based; conditions: 0.025 mg/mL antibody fragment, PBS, 4° C., 1 hour
Procedure: as §1

[6] = test system: A431-tFR cells (A431 transfected with folate receptor gene α-FR); assay: as above; assay type: cell-based; conditions: 0.025 mg/mL antibody fragment, PBS, 4° C., 1 hour
Procedure: as §1

[7] = test system: IGROV-1 cells (high natural expression of folate receptors); assay: as above; assay type: cell-based; conditions: 0.025 mg/mL antibody fragment, PBS, 4° C., 1 hour
Procedure: as §1

IGROV-1 cells [8] = assay: Confocal laser scanning microscopy (CLSM) of nanocube internalization; assay type: cell-based
IGROV-1 cells [9] = assay: Comet assay for DNA cross-linking; assay type: cell-based; conditions: 24, 48, 72 hours incubation, then H2O2
Procedure: Furthermore, once released from the nanocubes, platinum must be incorporated into the cell nuclei and must form crosslinks with the DNA. In fact, its toxicity depends on the impossibility for cells to replicate and transcribe their genetic makeup due to the presence of platinum-DNA complexes. Thus, to evaluate the presence of cross-linking in the DNA of cells treated with nanocubes, a Comet assay was performed, whose results are illustrated in the images in FIG. 7, acquired with a confocal microscope. In this experiment, the cell samples examined of IGROV-1 cells were incubated with the nanocubes with antibody but without platinum (in FIG. 7 indicated as NCs_C4) and with the nanocubes of the invention with antibody and oxaliplatin (indicated in the figure as NCs_OHP_C4) for 24, 48 and 72 hours, so they were treated with H2O2 hydrogen peroxide. As a control, IGROV-1 cells were used, treated with the same nanocubes, with and without platinum, but without treatment with hydrogen peroxide.
The toxicity observed in the cells following treatment with functionalized nanocubes of the invention, we can conclude that it results from the combined effects of hyperthermia and toxicity induced by the platinum-based drug.

[10] = 24, 48 and 72 hours, oxaliplatin amount or nanocube concentration as for loaded nanocubes

## O=C1[O][Pt]2([NH][C@@H]3CCCC[C@H]3[NH]2)[O]C1=O [oxaliplatin, reference compound]
IGROV-1 cells [1]; [10]
  toxicity (cell viability, Presto blue): moderate toxicity
IGROV-1 cells [2]; free drug, 140 μM oxaliplatin (28 μg platinum), 24, 48, 120 hours
  cell viability after treatment: slightly affected

B1: NCs-PEG-Pt-scFv (conjugate)
scFv: NVQLVESGGGLVQPGRSLRLSCTTSGFTFGDYAMIWARQAPGKGLEWVSSISSSSSYIYYADSVKGRFTISRDNAKNSLYLQMNSLRAEDTAVYYCARERYDFWSGMDVWGKGTTVTVSSGGGGSGGGGSGGSAQSALTQPASVSGSPGQSITISCTGTSSDVGSYNLVSWYQQHPGKAPKLMIYEGSKRPSGVSNRFSGSKSGNAASLTISGLQAEDEADYYCQSYDSSLSVVFGGGTKLTVLGAAAHHHHHHGAAEQ
[3]
  pH of maximum amount of platinum released: 4.5
  release of platinum: pH dependent
[4]
  nanocube binding to cells (fluorescence intensity vs. cell count): nanocube binding was demonstrated
[5]
  nanocube binding to cells (fluorescence intensity vs. cell count): no binding was found
[6]
  nanocube binding to cells (fluorescence intensity vs. cell count): nanocube binding was demonstrated
[7]
  nanocube binding to cells (fluorescence intensity vs. cell count): nanocube binding was demonstrated
IGROV-1 cells [1]; 24 hours of treatment, then fresh medium 24, 48, 72 hours
  cell viability post-incubation (p.i.): decreases after 24 hours of treatment (post-incubation, p.i.) for the next 24 hours and then goes up again after 48 and 72 hours post-incubation
IGROV-1 cells [1]; 48 hours incubation, Fe 0.05, 0.1, 0.15 g/L = 1.3, 2.6, 3.9 μM oxaliplatin
  toxicity (cell viability, Presto blue): Serious toxicity
IGROV-1 cells [1]; 48 hours of treatment, then fresh medium up to 72 hours
  cell viability post-incubation (p.i.): decreases again for the next 72 hours
IGROV-1 cells [1]; 72 hours incubation vs 48 hours, Fe 0.05, 0.1, 0.15 g/L = 1.3, 2.6, 3.9 μM oxaliplatin
  toxicity (cell viability, Presto blue): increased
IGROV-1 cells [8]; 2 hours incubation at 37° C.
  localization of nanocubes in cells: most of the nanocubes were located at the cell membrane
IGROV-1 cells [8]; 4 hours incubation at 37° C.
  localization of nanocubes in cells: progressive internalization
IGROV-1 cells [8]; 12 hours incubation at 37° C.
  localization of nanocubes in cells: complete internalization
IGROV-1 cells [9]
  DNA trace in Comet assay: progressive delay in migration reaching a maximum after 72 hours
IGROV-1 cells [2]
  cell viability at 24 hours: significantly modified cell viability
  cell viability at 48 hours: further compromised
  cell viability at 120 hours: about 40%

B2: NCs_scFv (conjugate)
scFv: NVQLVESGGGLVQPGRSLRLSCTTSGFTFGDYAMIWARQAPGKGLEWVSSISSSSSYIYYADSVKGRFTISRDNAKNSLYLQMNSLRAEDTAVYYCARERYDFWSGMDVWGKGTTVTVSSGGGGSGGGGSGGSAQSALTQPASVSGSPGQSITISCTGTSSDVGSYNLVSWYQQHPGKAPKLMIYEGSKRPSGVSNRFSGSKSGNAASLTISGLQAEDEADYYCQSYDSSLSVVFGGGTKLTVLGAAAHHHHHHGAAEQ
IGROV-1 cells [1]; [10]
  toxicity (cell viability, Presto blue): no toxicity
IGROV-1 cells [9]
  DNA trace in Comet assay: traces of extensive damage
IGROV-1 cells [2]
  cell viability at 24 hours: significantly modified cell viability
  cell viability at 48 hours: began to show a recovery
  cell viability at 120 hours: 95%
